Experimental findings from patent US20250034594A1, “RNA-GUIDED GENOME RECOMBINEERING AT KILOBASE SCALE” (THE BOARD OF TRUSTEES OF THE LELAND STANFORD JUNIOR …, priority 2021, published 2025) are described below.

Holding throughout (assay type): cell-based
One experiment has as its system gene editing with Cas9. Nature of the experiment: Screen of 322 new SSAP proteins, gene editing activity with Cas9 (Table 5). Details: Cas9 with SSAP activity: scale not given here. An outline of the steps: (§1)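 Read-out is gene editing activity. Candidates come from sequence data mining, are made synthetically, and are tested alongside either nuclease-active Cas9 or catalytically dead dCas9.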

The test system of experiment [1] is gene editing with Cas9 and dCas9. Nature of the experiment: Screen of 322 new SSAP proteins, activity across all experiments (Cas9 and dCas9, Table 5). Also noted: scale not given here. The essentials: as §1
In the next experiment the test system is gene editing with dCas9. The experiment is described as follows: Screen of 322 new SSAP proteins, gene editing activity with dCas9 (Table 5). Also noted: dCas9 with SSAP activity: scale not given here. An outline of the steps: as §1

B1: SSAP_281: SEQ ID NO: 450; Leucobacter luti (protein, listed as Leucobacter luti)
chain: SDLSQAAVAVKKSKTVEDYLTEYEPQFQRALGKSMDAAKFSQDALTAIKQTPQLGQADLQTLFGSLFLAAQLKLPVGGPLAQFHLTPRKRGDKLEVLPIIGFGGYVQLIMNTGLYSKVGAFLIYEKDYFDEGANSERGEFYDFKKSRGDRGPVVGVIAYVKLKGFDESQYVFLDADTIRSRHRPRYWEKTPWGSDEGEMFKKTGVRVLQKLLPKSVEAAPLALAADADQATVRKVDGIEDLTIQHDVVDAEVVPDGVPV
As to B1, in the experiment with gene editing with Cas9, the “Cas9 with SSAP activity” value is −1.121 and the “Cas9 with SSAP activity (normalized)” value is on record as −0.672. Also, the “Activity across all experiments” value in experiment [1] is −3.655. Also, in the experiment on gene editing with dCas9, the “dCas9 with SSAP activity” value is on record as −6.188 and the “dCas9 with SSAP activity (normalized)” value was −0.973.

B2: SSAP_167: SEQ ID NO: 336; Ruminococcus sp. (protein, listed as Ruminococcus sp.)
chain: GTSIQKNVENNALQKEKMPTMQAYIKKMEGEIKKALPSVMTPERFTRITLSALSTNPKLAATTPGSFLGAMMTAAQLGLEPNTPLGQAYLIPYSNKGKLECQFQIGYKGLIDLAYRSGSISVIQAHTVYENDDFEYELGLDPKLKHIPSKSADKGNPAWFYAVFKTKDGGYGFEVMSIEDIRSHAAKYSQSYNSAYSPWKTNFEEMAKKTVLKKALKYAPLKSDFVRQISTDETIKTKLSDDMFSVPAETIEVEGIEVDTETGEITEVDHA
With B2, in the experiment with gene editing with Cas9, the “Cas9 with SSAP activity” value is listed as −1.337 and the “Cas9 with SSAP activity (normalized)” value is on record as −0.698. Also, the “Activity across all experiments” value in experiment [1] is reported as −3.703. In addition, in the experiment on gene editing with dCas9, the “dCas9 with SSAP activity” value is −6.070 and the “dCas9 with SSAP activity (normalized)” value is recorded as −0.834.

B3: SSAP_112: SEQ ID NO: 281; Bacillus sp. UNC322MFChir4.1 (protein, listed as Bacillus sp.)
chain: ATNKDVKNQLANRKENKPATPEQKVEAYMTAMAPRFAEVLPKHMSMDRMSRIALTTIRTNPKLLECSVPSLMGAVMQAVQLGLEPGLLGHCYILPYKSEATFIIGYKGMIDLARRSGHIQSIYAHAVYENDEFDYELGLHPKLTHKPSFGERGEFIGAYAVAHFKDGGHQMEFMPKSEIEKRRSRSASGNSSYSPWKSDYEEMAKKTVVRYMFKYLPISIEVQSQAQHDEVVRKDITEEPEFIEMDSIEVAEASEGDGQKEFVIEE
B3: in the experiment with gene editing with Cas9, the “Cas9 with SSAP activity” value is recorded as −1.038 and the “Cas9 with SSAP activity (normalized)” value was −0.628. Also, the “Activity across all experiments” value in experiment [1] was −3.533. Besides, in the experiment with gene editing with dCas9, the “dCas9 with SSAP activity” value was −6.027 and the “dCas9 with SSAP activity (normalized)” value is listed as −0.986.

B4: SSAP_125: SEQ ID NO: 294; Lysinibacillus fusiformis (protein, listed as Lysinibacillus fusiformis)
chain: ATTNELKAKSQNQVQQNVTPEQSLNTLLKRMGPQIQRALPKHMDADRIARIALTAVRATPKLLECDQMSFVAALMQSAQLGVEPNTGLGQAYLIPYGKQVQFQLGYKGLIDLAVRSGQYKAIYAHEVYKEDEFSFAYGLHKDLVHVPSTNPEGEPIGYYAVYHLKNGGYDFVYWTRERIDKHAHEFSQAVKKGWTSPWKTNYDAMAKKTVLKEVLKYAPKSIELQKVVEADETIKTEVSEDMSDVIDVTDYSVIEDESAQEELIIEQ
Take B4: in the experiment on gene editing with Cas9, the “Cas9 with SSAP activity” value is given as −1.981 and the “Cas9 with SSAP activity (normalized)” value is on record as −0.329. Further, in experiment [1], the “Activity across all experiments” value is listed as −4.043. In the experiment with gene editing with dCas9, the “dCas9 with SSAP activity” value is on record as −6.106 and the “dCas9 with SSAP activity (normalized)” value is −1.313.

B5: SSAP_2: SEQ ID NO: 173 (protein)
chain: ATNESLKNQLTTKKETGLGSAGNTIKGLMNSPAIKKRFEEVLKQRAPQYMSSIVNLVNSDINLKKCDQMSVVASCMVAATLDLPVDKNLGYAWVVPYGNKAQFQLGYKGYVQLALRTGQYKSINVIEIHEGELIDWNPLTEELKIDFSKKESDAVIGYAGYFELLNGFKKSTYWTKEQITKHKNKFSKSDFGWKKDFDAMARKTVLRNMLSKWGILSIEMQNAYTADQGIIKNEIMETGEVKENIEYIEADFESYEDNSIEEGGANE
Regarding B5, in the experiment on gene editing with Cas9, the “Cas9 with SSAP activity” value is −7.779 and the “Cas9 with SSAP activity (normalized)” value was −1.250. For the same molecule, the “Activity across all experiments” value in experiment [1] was −6.946. Also, in the experiment with gene editing with dCas9, the “dCas9 with SSAP activity” value is −6.114 and the “dCas9 with SSAP activity (normalized)” value is reported as −1.204.
